Measurements published in paper PMC11014345, “Lethal perturbation of an Escherichia coli regulatory network is triggered by a restriction-modification system's regulator and can be mitigated by excision of the cryptic prophage Rac” (Nucleic Acids Research, 2023).

Biological target: the molecule itself
Assay: SEC; Superdex 75 10/300 GL, 0.5 mg protein loaded, 50 mM potassium phosphate buffer pH 7.0, 150 mM NaCl, 0.5 ml/min; column calibrated with marker proteins; self-association of RacR (octamer)

B1: C-terminally-6His-tagged RacR repressor (natural protein, Escherichia coli K-12 (Rac prophage), UniProt P76062 1-158, looked up)
chain: MLSGKDLGRAIEQAINKKIASGSVKSKAEVARHFKVQPPSIYDWIKKGSISKDKLPELWRFFSDVVGPEHWGLNEYPIPTPTNSDTKSELLDINNLYQAASDEIRAIVAFLLSGNATEPDWVDHDVRAYIAAMEMKVGKYLKALESERKSQNITKTGT
notes: RacR repressor of the cryptic Rac prophage of Escherichia coli K-12; predicted size of the 6His-tagged monomer 18.5 kDa; not shown: 6His, C-terminal, kept
  stoichiometry N: 8
